Patent US20230256092A1 (SHIONOGI, published 2023)
Where a chain is given by its changes, count along the chain named. Names may count otherwise. Like-named read-outs stand apart in the source and are kept apart here. Each block holds one binder with its values, some of them ahead of it.

Legend:
Experiment in all cases: cell-based or functional assay
human CCR8 [1] = molecular target: T1, human CCR8 (human, UniProt P51685 1-355)
human CCR8 [2] = molecular target: T1, human CCR8; remark: listed apart in the source
human CCR8 [3] = molecular target: T1, human CCR8; remark: listed apart in the source

IC50 (nM), Ca2+ influx by 200 nM hCCL1 (human CCR8 [1]): 0.16 nM
B1: h10A11 (IGKV3-20/IGHV3-15 T94R) (antibody, V domains shown)
VH: EVQLVESGGALVKPGGSLRLSCAASGFTFSTYALYWVRQAPGKGLEWVGRIRSKSNNYATYYADSVKDRFTISRDDSKNTLYLQMNSLKTEDTAVYYCTRARFYYSDYGYAMDYWGQGTLVTVSS
VL: EIVLTQSPGTLSLSPGERATLSCRSSKSLLHSNGNTYLYWYQQKPGQAPRLLIYRMSNLASGIPDRFSGSGSGTDFTLTISRLEPEDFAVYYCMQHLEYPLTFGQGTKVEIKR

IC50 (nM), Ca2+ influx by 200 nM hCCL1 (human CCR8 [2]): 0.12 nM
B2: humanized 10A11 antibody (light chain variable region: IGKV4-1 N53Q+G29R/heavy chain variable region: IGHV3-15 T94R) (antibody, V domains shown)
VH: B1 VH
VL: DIVMTQSPDSLAVSLGERATINCRSSKSLLHSNRNTYLYWYQQKPGQPPKLLIYRMSQLASGVPDRFSGSGSGTDFTLTISSLQAEDVAVYYCMQHLEYPLTFGQGTKLEIKR

IC50 (nM), Ca2+ influx by 200 nM hCCL1 (human CCR8 [2]): 0.21 nM
B3: humanized 10A11 mutant (IGKV3-20 N53Q, G29L/IGHV3-15 T94R) (antibody, V domains shown)
VH: B1 VH
VL: B1 VL with G34L, N58Q

IC50 (nM), Ca2+ influx by 200 nM hCCL1 (human CCR8 [1]): 0.7 nM
B4: h10A11 (IGKV1-16/IGHV3-15 T94R) (antibody, V domains shown)
VH: B1 VH
VL: DIQMTQSPSSLSASVGDRVTITCRSSKSLLHSNGNTYLYWFQQKPGKAPKSLIYRMSNLASGVPSRFSGSGSGTDFTLTISSLQPEDFATYYCMQHLEYPLTFGQGTKLEIKR

IC50 (nM), Ca2+ influx by 200 nM hCCL1 (human CCR8 [1]): 0.2 nM
B5: h10A11 (IGKV2-28/IGHV3-73) (antibody, V domains shown)
VH: B1 VH with A10G, K13Q, R19K, T28A, S30N, P41S, L81A
VL: DIVMTQSPLSLPVTPGEPASISCRSSKSLLHSNGNTYLYWYLQKPGQSPQLLIYRMSNLASGVPDRFSGSGSGTDFTLKISRVEAEDVGVYYCMQHLEYPLTFGQGTKVEIKR

IC50 (nM), Ca2+ influx by 200 nM hCCL1 (human CCR8 [1]): 0.3 nM
B6: h10A11 (IGKV2-40/IGHV3-15 T94R) (antibody, V domains shown)
VH: B1 VH
VL: B5 VL with S7T, V109L

IC50 (nM), Ca2+ influx by 200 nM hCCL1 (human CCR8 [2]): 0.29 nM
B7: humanized 10A11 mutant (IGKV3-20 N53Q, N28K/IGHV3-15 T94R) (antibody, V domains shown)
VH: B1 VH
VL: B1 VL with N33K, N58Q

IC50 (nM), Ca2+ influx by 200 nM hCCL1 (human CCR8 [1]): 0.2 nM
B8: h10A11 (IGKV1-39/IGHV3-15 T94R) (antibody, V domains shown)
VH: B1 VH
VL: B4 VL with F41Y, S51L

IC50 (nM), Ca2+ influx by 200 nM hCCL1 (human CCR8 [1]): 0.16 nM
B9: h10A11 (IGKV1-39/IGHV3-73) (antibody, V domains shown)
VH: B1 VH with A10G, K13Q, R19K, T28A, S30N, P41S, L81A
VL: B4 VL with F41Y, S51L

IC50 (nM), Ca2+ influx by 200 nM hCCL1 (human CCR8 [1]): 0.21 nM
B10: h10A11 (IGKV2-40/IGHV3-73) (antibody, V domains shown)
VH: B1 VH with A10G, K13Q, R19K, T28A, S30N, P41S, L81A
VL: B5 VL with S7T, V109L

IC50 (nM), Ca2+ influx by 200 nM hCCL1 (human CCR8 [2]): 0.19 nM
B11: humanized 10A11 mutant (IGKV3-20 N53Q, G29R/IGHV3-15 T94R) (antibody, V domains shown)
VH: B1 VH
VL: B1 VL with G34R, N58Q

IC50 (nM), Ca2+ influx by 200 nM hCCL1 (human CCR8 [3]): 0.23 nM
B12: 2-7B (antibody, V domains shown)
VH: EVQLVESDGGLVQPGRSLKLSCAASGFTFSDYYMAWVRQAPTKGLEWVATITYDVYSTYYRDSVKGRFTISRDNAKSTLYLQMDSLRSEDTATYYCARHGGDGYNSGNWFAYWGQGTLVTVSS
VL: DIVLTQSPALAVSLGQRATISCRASQSVSISRYNIMHWYQQKPGQQPKLLIYRASNLASGIPARFSGSGSGTDFTLTINPVQADDIATYYCQQSRESPPTFGGGTKLELKR
